Assay results published in PMC2448379.
Where no end group is shown, it is not given here.

T1: S. cerevisiae Pex5p TPR domain (305 aa), Gal4p DNA-binding domain fusion (pAH987) (S. cerevisiae)
T1 sequence (P35056 whole entry, looked up): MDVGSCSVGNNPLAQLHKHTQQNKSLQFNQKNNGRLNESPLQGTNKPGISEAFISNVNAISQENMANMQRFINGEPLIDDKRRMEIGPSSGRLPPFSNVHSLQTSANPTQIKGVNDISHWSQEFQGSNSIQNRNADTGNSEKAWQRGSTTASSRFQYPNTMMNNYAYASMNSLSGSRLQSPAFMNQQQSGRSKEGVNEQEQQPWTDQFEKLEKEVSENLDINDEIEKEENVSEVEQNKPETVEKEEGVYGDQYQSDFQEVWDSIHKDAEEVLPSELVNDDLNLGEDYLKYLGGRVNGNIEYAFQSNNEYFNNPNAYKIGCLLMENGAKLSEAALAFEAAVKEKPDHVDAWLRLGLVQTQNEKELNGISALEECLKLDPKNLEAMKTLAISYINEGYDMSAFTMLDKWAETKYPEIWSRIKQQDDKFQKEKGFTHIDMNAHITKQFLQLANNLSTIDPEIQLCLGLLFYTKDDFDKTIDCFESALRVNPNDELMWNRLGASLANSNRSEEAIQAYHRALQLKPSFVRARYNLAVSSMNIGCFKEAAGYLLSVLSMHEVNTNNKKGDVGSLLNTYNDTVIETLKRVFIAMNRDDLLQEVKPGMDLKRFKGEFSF

B1: Gal4p-… (peptide)
chain: Gal4p-RQRELSANALGGLAKL
B2: Gal4p-… (peptide)
chain: Gal4p-NGMTRSGRQGGGFAKL
B3: Gal4p-… (peptide)
chain: Gal4p-GKNRGSESHGSARQKL
B4: Gal4p-… (peptide)
chain: Gal4p-EGLIVMLERGKL
B5: Gal4p-… (peptide)
chain: Gal4p-KRVWRRQWSTGRKLKL
B6: Gal4p-… (peptide)
chain: Gal4p-WYGPGPGCCRRRDLKL
modifications: cysteine pairing not given here
B7: Gal4p-… (peptide)
chain: Gal4p-QRKANGRDRGGWWAKL
B8: Gal4p-… (peptide)
chain: Gal4p-TWNRETKGLNAVYGKL
B9: Gal4p-… (peptide)
chain: Gal4p-SGGVVARAAKM
B10: Gal4p-CERSKL (peptide)
chain: Gal4p-CERSKL
B11: Gal4p-… (peptide)
chain: Gal4p-FEWGSQGWTRGRMHML

biological target: C. elegans PEX-5 TPR domain (267 aa), Gal4p DNA-binding domain fusion (pSL8) (C. elegans); assay: two-hybrid; yeast strain PCY3; Pex5 TPR domain in pGBT9 (Gal4p DNA-binding domain) with Gal4p activation domain-peptide fusions in pGAD GH; b-galactosidase activity measured with O-nitrophenyl-b-D-galactoside on cells grown at 30 C in liquid selective medium; mean of three independent experiments per strain; details: scale: nmol O-nitrophenyl-b-D-galactoside hydrolysed/min/mg protein

b-Galactosidase activity	Binder
447	B1
352	B2
57.9	B3
143	B4
3.8	B5
4.4	B6
631	B7
90.3	B8
293	B9

biological target: T1, S. cerevisiae Pex5p TPR domain (305 aa), Gal4p DNA-binding domain fusion (pAH987) (S. cerevisiae); assay: as above; details: scale: nmol O-nitrophenyl-b-D-galactoside hydrolysed/min/mg protein

b-Galactosidase activity	Binder
163	B10
39	B11
